Data as given in article PMC3968096, “Discovering Aptamers by Cell-SELEX against Human Soluble Growth Factors Ectopically Expressed on Yeast Cell Surface”.

Target: VEGF165 (soluble) (human, UniProt P15692-4 27-191)
Test: F-EMSA; 1 mM Mg2+; 10 mM HEPES pH 7.9, 125 mM NaCl, 25 mM KCl, 1 mM MgCl2; F-EMSA at room temperature for 2 h, 5% PAGE at 4 C; flow cytometry in the same buffer
Conditions: protein: recombinant, chain copies: 2, label: 5' fluorescein (F-EMSA), 5' biotin (flow)

Sequence of VEGF165 (soluble) (P15692 other isoform, or with tags, fused parts or gaps): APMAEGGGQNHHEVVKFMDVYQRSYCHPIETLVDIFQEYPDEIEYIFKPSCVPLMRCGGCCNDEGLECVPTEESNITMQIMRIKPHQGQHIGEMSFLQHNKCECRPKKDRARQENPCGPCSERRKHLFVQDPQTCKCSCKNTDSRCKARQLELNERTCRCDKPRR

B1: hVap1_T1979 (structured_DNA)
DNA: TCTAGCCCACTGCATAGAGGTAGCCACGTATGTGGGTGTTACCCATTCGTAGCTACCGGTG
Kd (predicted stem-loops): 1.7 ± 0.1 nM

B2: hVap1_SST (structured_DNA)
DNA: TCTAGCCCACTGCATAGAGGTAGCTACCGGTG
Kd (stem-loop plus shortened second stem-loop): 2.5 ± 0.2 nM

B3: hVap1_Stem (structured_DNA)
DNA: TCTAGCCCACTGCATAGAGGTAGCCACGTATGTTCGTGGCTACCGGTG
Kd (two predicted stem-loops): 5.6 ± 0.3 nM
